Results on five molecules are retold here after article PMC8534323, “Proteinous Components of Neutrophil Extracellular Traps Are Arrested by the Cell Wall Proteins of Candida albicans during Fungal Infection, and Can Be Used in the Host Invasion” (Cells, 2021).

B1: triosephosphate isomerase 1 (Tpi1) (enzyme, UniProt Q9P940 1-248, looked up)
chain: MARQFFVGGNFKANGTKQQITSIIDNLNKADLPKDVEVVICPPALYLGLAVEQNKQPTVAIGAQNVFDKSCGAFTGETCASQILDVGASWTLTGHSERRTIIKESDEFIAEKTKFALDTGVKVILCIGETLEERKGGVTLDVCARQLDAVSKIVSDWSNIVVAYEPVWAIGTGLAATPEDAEETHKGIRAHLAKSIGAEQAEKTRILYGGSVNGKNAKDFKDKANVDGFLVGGASLKPEFVDIIKSRL
notes: source: purified from C. albicans ATCC 10231 hyphae cell wall extract (MonoQ, Superdex-200); for cross-linking: endogenous, in that extract
B2: Phosphoglycerate mutase 1 (Gpm1), recombinant (enzyme)
chain: MPKLVLVRHGQSEWNEKNLFTGWVDVRLSETGQKEAKRAGELLKEAGINVDVLHTSKLSRAIQTANIALDAADQLYVPVKRSWRLNERHYGALQGKDKAQTLEAYGQEKFQIWRRSFDVPPPKIDPKDEYSQVGDRRYADVDPAVVPLTESLALVIDRLLPYWQDEIAGDLLAGKVVLIAAHGNSLRALVKHLDNISDEDIAGLNIPTGIPLVYELDENLKPTKPSYYLDPEAAAAGAAAVAAQGQKK
B3: enolase (Eno1) (enzyme)
chain: MSYATKIHARYVYDSRGNPTVEVDFTTDKGLFRSIVPSGASTGVHEALELRDGDKSKWLGKGVLKAVANVNDIIAPALIKAKIDVVDQAKIDEFLLSLDGTPNKSKLGANAILGVSLAAANAAAAAQGIPLYKHIANISNAKKGKFVLPVPFQNVLNGGSHAGGALAFQEFMIAPTGVSTFSEALRIGSEVYHNLKSLTKKKYGQSAGNVGDEGGVAPDIKTPKEALDLIMDAIDKAGYKGKVGIAMDVASSEFYKDGKYDLDFKNPESDPSKWLSGPQLADLYEQLISEYPIVSIEDPFAEDDWDAWVHFFERVGDKIQIVGDDLTVTNPTRIKTAIEKKAANALLLKVNQIGTLTESIQAANDSYAAGWGVMVSHRSGETEDTFIADLSVGLRSGQIKTGAPARSERLAKLNQILRIEEELGSEAIYAGKDFQKASQL
notes: source: purified from the cytosolic fraction of C. albicans cells (MonoQ, MonoS); for cross-linking: endogenous, in the cell wall protein extract of C. albicans hyphae
B4: human neutrophil elastase (HNE) (enzyme, UniProt P08246 30-267, looked up)
chain: IVGGRRARPHAWPFMVSLQLRGGHFCGATLIAPNFVMSAAHCVANVNVRAVRVVLGAHNLSRREPTRQVFAVQRIFENGYDPVNLLNDIVILQLNGSATINANVQVAQLPAQGRRLGNGVQCLAMGWGLLGRNRGIASVLQELNVTVVTSLCRRSNVCTLVRGRQAGVCFGDSGSPLVCNGLIHGIASFVRGGCASGLYPDAFAPVAQFVNWIDSIIQRSEDNPCPHPRDPDPASRTH
modifications: sulfo-SBED crosslinker in the cross-linking experiment; in flow cytometry preincubated or not with 10 µM N-(Methoxysuccinyl)-Ala-Ala-Pro-Val-chloromethyl ketone
notes: source: bought: Biocentrum (Kraków, Poland)
B5: Als3 (agglutinin-like sequence protein 3), isolated from the surface of C. albicans (natural protein)
chain: KTITGVFNSFNSLTWSNAATYNYKGPGTPTWNAVLGWSLDGTSASPGDTFTLNMPCVFKFTTSQTSVDLTAHGVKYATCQFQAGEEFMTFSTLTCTVSNTLTPSIKALGTVTLPLAFNVGGTGSSVDLEDSKCFTAGTNTVTFNDGGKKISINVDFERSNVDPKGYLTDSRVIPSLNKVSTLFVAPQCANGYTSGTMGFANTYGDVQIDCSNIHVGITKGLNDWNYPVSSESFSYTKTCSSNGIFITYKNVPAGYRPFVDAYISATDVNSYTLSYANEYTCAGGYWQRAPFTLRWTGYRNSDAGSNGIVIVATTRTVTDSTTAVTTLPFDPNRDKTKTIEILKPIPTTTITTSYVGVTTSYSTKTAPIGETATVIVDIPYHTTTTVTSKWTGTITSTTTHTNPTDSIDTVIVQVPSPNPTVTTTEYWSQSFATTTTITGPPGNTDTVLIREPPNHTVTTTEYWSESYTTTSTFTAPPGGTDSVIIKEPPNPTVTTTEYWSESYTTTTTVTAPPGGTDTVIIREPPNHTVTTTEYWSQSYTTTTTVIAPPGGTDSVIIREPPNPTVTTTEYWSQSYATTTTITAPPGETDTVLIREPPNHTVTTTEYWSQSYATTTTITAPPGETDTVLIREPPNHTVTTTEYWSQSYTTTTTVIAPPGGTDSVIIKEPPNPTVTTTEYWSQSYATTTTITAPPGETDTVLIREPPNHTVTTTEYWSQSYATTTTITAPPGETDTVLIREPPNHTVTTTEYWSQSFATTTTVTAPPGGTDTVIIREPPNHTVTTTEYWSQSFATTTTIIAPPGETDTVLIREPPNPTVTTTEYWSQSYTTATTVTAPPGGTDTVIIYDTMSSSEISSFSRPHYTNHTTLWSTTWVIETKTITETSCEGDKGCSWVSVSTRIVTIPNNIETPMVTNTVDTTTTESTLQSPSGIFSESGVSVETESSTFTTAQTNPSVPTTESEVVFTTKGNNGNGPYESPSTNVKSSMDENSEFTTSTAASTSTDIENETIATTGSVEASSPIISSSADETTTVTTTAESTSVIEQQTNNNGGGNAPSATSTSSPSTTTTANSDSVITSTTSTNQSQSQSNSDTQQTTLSQQMTSSLVSLHMLTTFDGS
notes: source: purified from C. albicans ATCC 10231 hyphae cell wall extract (β-1,3-glucanase and 2-mercaptoethanol; MonoQ, Superdex-200)

Details in all cases: both partners purified
The target in one test is T1, lactotransferrin (LF) (human, UniProt P02788 20-710, NHS-fluorescein label in flow cytometry; sulfo-SBED crosslinker in the cross-linking experiment).
T1 construct: also called lactoferrin; source: bought: Sigma
T1 sequence (P02788 20-710): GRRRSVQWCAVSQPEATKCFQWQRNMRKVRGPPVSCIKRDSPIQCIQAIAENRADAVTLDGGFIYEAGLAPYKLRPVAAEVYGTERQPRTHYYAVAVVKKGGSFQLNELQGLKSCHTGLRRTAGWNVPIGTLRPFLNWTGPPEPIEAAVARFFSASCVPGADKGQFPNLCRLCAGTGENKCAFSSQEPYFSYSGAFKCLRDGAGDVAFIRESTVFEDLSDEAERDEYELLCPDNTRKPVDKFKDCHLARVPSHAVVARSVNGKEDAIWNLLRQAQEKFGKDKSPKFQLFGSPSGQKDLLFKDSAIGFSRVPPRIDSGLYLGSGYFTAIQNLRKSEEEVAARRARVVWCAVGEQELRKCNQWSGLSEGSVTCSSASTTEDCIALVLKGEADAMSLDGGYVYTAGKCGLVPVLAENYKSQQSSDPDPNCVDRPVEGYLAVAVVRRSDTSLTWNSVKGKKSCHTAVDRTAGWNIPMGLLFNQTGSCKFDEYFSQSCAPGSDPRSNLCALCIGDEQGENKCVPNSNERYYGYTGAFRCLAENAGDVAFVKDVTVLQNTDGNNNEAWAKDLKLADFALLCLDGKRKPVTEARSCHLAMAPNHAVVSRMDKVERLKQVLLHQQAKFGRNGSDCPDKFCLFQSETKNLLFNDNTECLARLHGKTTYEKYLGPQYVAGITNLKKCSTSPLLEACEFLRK
The test can be described thus: SPR. In general terms: In SPR one partner is held on a chip, and binding of the other changes the refractive index at the surface.

In another test the target is histone H4 (human, UniProt P62805 1-103). The test can be described thus: ELISA-like microplate ligand-binding assay.
The target of test [1] is B5. Briefly: SPR.

By Kd is commonly meant the constant that tells how readily two partners part at equilibrium. A low value points to higher affinity. B1 showed a Kd with lactotransferrin (LF) of 163 ± 0.2 nM.
B2 showed a Kd in the test with histone H4 of 1900 ± 414 nM.
Same read-out and setting: for B3 the value was 384 ± 130 nM.
In turn, B4 had a Kd in test [1] of 65 ± 5.3 nM.
The molecule B5 returned a Kd with histone H4 of 820 ± 330 nM.
